A word on the Ki: it is the equilibrium dissociation constant of an inhibitor or competing ligand from its target.

Data set [1] relates to T1, PIfXa (KPI A-k1, Kunitz protease inhibitor purified from potato tuber, Solanum tuberosum cv. Kuras; SEQ ID NO:1).
T1 sequence: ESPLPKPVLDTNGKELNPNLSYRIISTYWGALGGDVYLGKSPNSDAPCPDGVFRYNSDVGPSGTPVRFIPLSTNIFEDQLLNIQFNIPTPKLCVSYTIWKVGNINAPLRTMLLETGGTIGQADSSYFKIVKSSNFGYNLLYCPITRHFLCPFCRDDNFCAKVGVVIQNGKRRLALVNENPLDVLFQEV

The test system of data set [2] is T2, fraction B11SI (cation exchange fraction from potato juice; major inhibitor KPI A-k1, SEQ ID NO:1).
T2 sequence: T1 sequence

Data set [3] has as its target T3, factor Xa (fXa).
T3 chain 1: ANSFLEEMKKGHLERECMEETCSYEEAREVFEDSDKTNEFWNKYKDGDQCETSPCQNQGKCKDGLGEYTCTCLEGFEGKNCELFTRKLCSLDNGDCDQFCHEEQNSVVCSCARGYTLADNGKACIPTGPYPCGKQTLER
T3 chain 2: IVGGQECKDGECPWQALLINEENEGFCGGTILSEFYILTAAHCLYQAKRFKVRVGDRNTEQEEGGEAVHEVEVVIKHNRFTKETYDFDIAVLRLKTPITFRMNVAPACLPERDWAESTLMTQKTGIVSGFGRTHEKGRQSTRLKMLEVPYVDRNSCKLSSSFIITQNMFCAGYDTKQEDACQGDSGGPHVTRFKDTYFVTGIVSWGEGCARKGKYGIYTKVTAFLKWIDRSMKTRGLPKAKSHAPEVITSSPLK
Briefly: amidolytic activity assay: chromozym t-PA hydrolysis by 50 nM fXa, competitive inhibition fit (GraphPad Prism).

Data set [4] addresses T3, factor Xa (fXa). Nature of the data set: amidolytic activity assay: chromozym t-PA hydrolysis by 50 nM fXa, competitive inhibition fit, in the presence of 1 U/mL heparin.

In the case of factor Xa (fXa), in data set [1], the reaction rate of chromozym t-PA hydrolysis by 25 nM fXa with 100 µg/mL PIfXa, no antibody (Ctrl without PIfXa 19.2) worked out at 2 µM/min; the reaction rate of chromozym t-PA hydrolysis by fXa with PIfXa, before addition of antibody (sample PlfXa 1:1) stood at 2.1 µM/min; the reaction rate of chromozym t-PA hydrolysis by fXa with PIfXa, before addition of antibody (sample PlfXa 1:2.5) stood at 2.1 µM/min; the reaction rate of chromozym t-PA hydrolysis by fXa with PIfXa, before addition of antibody (sample PlfXa 1:5) amounted to 2.2 µM/min. Moreover, the reaction rate of chromozym t-PA hydrolysis by fXa with PIfXa, before addition of antibody (sample PlfXa 1:10) in data set [1] was 1.4 µM/min. Further, in data set [2], the KM of chromozym t-PA hydrolysis by fXa with B11SI (fXa alone 0.23) was found to be 1250 µM; the KM of chromozym t-PA hydrolysis by fXa with B11SI and heparin turned out to be 1180 µM; the Vmax of chromozym t-PA hydrolysis by fXa with B11SI (fXa alone 8.8 · 10^-2) was 0.026 mM/min; the Vmax of chromozym t-PA hydrolysis by fXa with B11SI and heparin came to 0.023 mM/min.

B1: fraction B11SI (cation exchange fraction from potato juice; major inhibitor KPI A-k1, SEQ ID NO:1) (other)
chain: T1 sequence
notes: A chromatography fraction, not a pure protein; By nESI the highest peak is 20,830 Da (KPI A-k1 N-terminal variant 3), with further peaks for variants 4, 2 and 1; also called B1151
As for B1, the inhibitory constant (Ki) with factor Xa (fXa) [3] amounted to 114 nM; in the data set with factor Xa (fXa) [4] it was 101 nM.

Values taken from patent US20110027337A1 (IFXA A S, published 2011).
